From a protein production outcome set (Wang et al. 2014)

Assay: label from the status in PepcDB records
With “MVEENQLQSLKDVAKQAPVHRKLDIQEWKTAEGAKVLFVEAHELPMFDLRLTFAAGSSQDAGTPGLSMLTNAMLNEGVPGKDTTAIAAGFEDLGASFSNGSYRDMAVAGLRSLSEADKRTQALKLFEQVIGQPTFPEDALARIKNQVLAGFEYQKQNPGKLAGLELFKRLYGEHPYAHSSDGDEKSVPTISREQLQAFHKKAYAAGNVVIALVGDLSRQEAEAIAAEVSKALPQGPALAKTVQPETPKPGLTHIDFPSEQTHLMLAQLGIDRQDPDYAALYLGNQILGGGGFGTRLMDQVREKRGLTYGIYSGFTAMQARGPFMINFQTRAELSEGALKLVQDIVRDYLANGPTQKELDDAKRELAGSFPLSTASNADIVGQLGAIGFYGLPLDYLESFLKQVEGLSVEQVRTAMAKHLDADAFVIVSAGLEHHHHHH” the protein production was “not failed”.
With “MVEFELLRSLGIMLLAALGVVLVARTARVPNIVAYIGAGLLLGPALGVLTVTHTIELIAEFGIILLLFLVGLELSLDKIKAVGTTAFVAGGVQMGGTALGGGLLAGLVGVPVVEAVVVAVAIMFSSTVVVVKMLEKQSDLDAPYGQIAVGVLLVQDLVVVMVLTFVAGLAGPGELAWADVARGLGQAFVGMVLLGGLIAAAARYVLPPAIQWISRMTEGLFIWSLFWCFLVVLGAEALHLSPELGAFLAGIALAQLPQCHELRQRVHPLMNFFIIVFFVSLGLQMELGAALARWPLALALAAFVMVVKPLLFFGVLPRLGHGEETSFRTGLSLAQISEFSLIFGALALSSGLIDEALLSVITLVGLVTFALSSFLLLYSDRLYAAVKPYRPLAWLGARQEAPAPPPDGLQGHVIVVGLNTLGRCLVDRLTAAGETVVAVDTDPEKLARRSVSTVHGNAVHETTREAADWEDAKLVVSSLSIEGTNNLLAYHAQRAGVPCSIHAFDRTSENSLRTFGVDHLIRSKHEGARRLLDELKSRAVLS” the protein production was “failed”.
With “MVEGLGRIGFGLFGLAVLIGITWLFSSNRRAIDWKLVATGLALQISFAALVLLVPGGRDVFDALGKGFVKVLSFVNEGSTFIFGNLMNIDSYGFIFAFQVLPTIIFFSALMGVLYHLGVMQMVVRAMAWAITKVMRVSGAETTSVCASVFIGQTEAPLTVRPYIPKMTQSELLTMMIGGMAHIAGGVLAAYVGMLGGSDPAQQAFYAKHLLAASIMAAPATLVVAKLLVPETGTPLTRGTVKMEVEKTTSNVIDAAAAGAGDGLRLALNIGAMLLAFIALIALINAPLTWLGEVTGATALLGRPTNLSTIFGYVLAPIAWVIGTPWVDATTVGSLIGQKVVINEFVAYSELSRIVKGEVRGVGLSAEGRLIATYALCGFANFSSIAIQIGGIGGLAPERRHDLANFGLRAVLGGSIATFMTATIAGVLSHFG” the protein production was “failed”.
For “MVEIIPVSTTLELRAADESHVPALHQLVLKNKAWLQQSLDWPQYVTSQEETRKHVQGNILLHQRGYAKMYLIFCQNEMAGVLSFNAIEPINKAAYIGYWLDESFQGQGIMSQSLQALMTHYARRGDIRRFVIKCRVDNQASNAVARRNHFTLEGCMKQAEYLNGDYHDVNMYARIIDAD”, the protein production was “not failed”.
For “MVEMNKRGQFFIIGGVILSIGLILFFLLGFNSYTSDGSYLTVFKMKDVKNSIESCLINSLTSNSNLSKNLDMLKNNYKDEGIEINYKKIIFSNIRYEAKNLTFNFSLYNGNFSYNISNYGFGGAFNGSLNVSNYVFSKNLLLNISENGSVTGSFNITGSYVNVFVYDRFGNLILNETIYNNSNEKSLYYYILNVSKEGILLYLLWQRMFLTTHWQKMYPL”, the protein production was “failed”.
In the case of “MVEPGVAKLTTYASKQATDMGAIYVNSKGDRIVNESNVYTTFRNAILKQADKVAYLVMDERTWKKVYDLLILHDFTPEEIKSFFENKGKRPVFVKGSLESAAEQAGIVVDELVQTVKNYQGYVQDGHDHDFGRDPKYLHQFEGETFYIIEQRLEHHHHHH”, the protein production is reported as “failed”.
With “MVESKTKFEEIRKWVSDHKLRTVGCLWLSGITGSIAYNWSQPAMKTSVKIIHARLHAQALTLAALAGAAVVEYYDHKTEATNRYPKFLPPENLSHKD” the protein production was “failed”.
With “MVFMANKKKTKGKKTRRPTKAEIERQRAIQRMITALVLTIILFFGIIRLGIFGITVYNVIRFMVGSLAYLFIAATLIYLYFFKWLRKKDSLVAGFLIASLGLLIEWHAYLFSMPILKDKEILRSTARLIVSDLMQFKITVFAGGGMLGALIYKPIAFLFSNIGAYMIGVLFIILGLFLMSSLEVYDIVEFIRAFKNKVAEKHEQNKKERFAKREMKKAIAEQERIERQKAEEEAYLASVNVDPETGEILEDQAEDNLDDALPPEVSETSTPVFEPEILAYETSPQNDPLPVEPTIYLEDYDSPIPNMRENDEEMVYDLDDDVDDSDIENVDFTPKTTLVYKLPTIDLFAPDKPKNQSKEKDLVRKNIRVLEETFRSFGIDVKVERAEIGPSVTKYEIKPAVGVRVNRISNLSDDLALALAAKDVRIETPIPGKSLIGIEVPNSEIATVSFRELWEQSDANPENLLEVPLGKAVNGNARSFNLARMPHLLVAGSTGSGKSVAVNGIISSILMKARPDQVKFMMIDPKMVELSVYNDIPHLLIPVVTNPRKASKALQKVVDEMENRYELFSKIGVRNIAGYNTKVEEFNASSEQKQIPLPLIVVIVDELADLMMVASKEVEDAIIRLGQKARAAGIHMILATQRPSVDVISGLIKANVPSRIAFAVSSGTDSRTILDENGAEKLLGRGDMLFKPIDENHPVRLQGSFISDDDVERIVGFIKDQAEADYDDAFDPGEVSETDNGSGGGGGVPESDPLFEEAKGLVLETQKASASMIQRRLSVGFNRATRLMEELEAAGVIGPAEGTKPRKVLMTPTPSE” the protein production was “failed”.
With “MVGERMWWWSSSSTKLRSNLERFLRGITPKPPSFSLSQSCKNDLNSLWIHENKDEIEYFRLSDLWDCFDEPSAYGLGSKVDLNNGESVMQYYVPYLSAIQIYTNKSTAISRIHSDVVDCESECWSDDSEIEKLSRSMSSGSSKIWDSVSDDSGYEIDGTSSLMRDKLGSIDFQYFESVKPHLRVPLTAKVNELAEKYPGLSTLRSVDLSPASWLAIAWYPIYHIPSRKTDKDLSTCFLSYHTLSSAFQGNLIEGDDEINETMKEETLCFDEGPVTKSIPLAPFGLVSYKLQGDLWRNQECGDQGRIVYLRSAADSWLKQLNVQDHHDHSFFSMNMSL” the protein production was “failed”.
With “MVGKSKSPEFNFEDGMAYFDAVKVALQDTEPEKYQEFVRIFIDYTANRFGFETLSASLQELLRDHANLCHGSNVLLPFRLQTAIPPEASAEFHINKVVGRSVPPAVAVPTMDDATSYLNAVKEAFHDEPAKYMEITKLLTDLKARRINAASVIARMEELLKDHLNLLLGFCVFLSPTRRFITKLKARFLGDGSQVVDSVLQILRMHSEGNKSKDEASQEVRALIQGHEDLLMELSEIFSDP” the protein production was “failed”.
With “MVGRDNVENTAMGEALSPSQISGRVDAVWGNPMAWEAAGWQWERLPAIRRMVNRHVTGDEAIDPLSWFFQRVAKDQTLPVRRALVLACGAGGLERQLISQGWVSEVVAVDLSPGALAAARDAARQAGISGIDYRQADMNALDVEGPFDLAVGSSALHHCENLEGIFAVVRRVLVPGGWFFLNDYIGPNRLQYDAAQVLEVNRLLQCLPDPLVMNAAGFSRRGFRPASLAEVIAFDPSEAPRSADILRVMGEALEVETVRPYGGNLLYLVLSNLAQNFDPAQSGDAAAPDYLRLLIEASDHWRATRHGQDHFAAAIARQPIS” the protein production was “failed”.
For “MVGRRVSPALTKDDAHSYIIAVKETFHDEPTKYQEFIKLLNGVCDHRVDKYSVIARVEELMKDHQDLLLGFSVFLPPVSVEDFINKLKSKFVHLQTRFQSLDTHVVGAIRGLMKMFKEGKMSVKEVQEEVIDVLFYHEDLIEDFLRFFTKNPVSTASLLLQL”, the protein production was “failed”.
For “MVGVRMTKKVLIVEDNELNMKLFHDLLEAQGYETLQTREGLSALSIARENKPDLILMDIQLPEISGLEVTKWLKEDDDLAHIPVVAVTAFAMKGDEERIREGGCEAYISKPISVVHFLETIKRLLERQPA”, the protein production was “not failed”.
In the case of “MVHTPLNFKFSEKREEWNLRFCRNVGVSIVELVTADASSAYVRGLMAVNGSKVYSILPFISIDAEKAKKAKFPEDRMSGVRGKVIPSVLPEIKGETILDIGCGFGTLTMELAKNNPESQVYGIDLHDSLTGQAEMNAEVLGLPNVEFRTGSAYALPFEKDSIDAVTCFLMLHHLEDIKFALFEIKRVLKKGGSLTAVEPLAHQHHHGPQLSEAEWKELFEEAGFGTETENMEGAVVLRAVKRELEHHHHHH”, the protein production is reported as “failed”.
With “MVIDQTDPIYVLFHDEEWGVPVRDDKKLFELLVFSQALAEFSWPSILRRRDDFRKLFEEFDPSAIAQFTEKRLMSLRVNGCLILSEQKLRAIVENAKSVLKVKQEFGSFSNYCWRFVNHKPLRNGYRYGRQVPVKSPKAEYISKDMMQRGFRCVGPTVMYSFLQASGIVNDHLTACFRYQECNVETERETKSHETETKLDLHSPLLV” the protein production was “failed”.
For “MVINRKIIGSYTQRQIAALLTDEPPSEQPKCNVRVVEMTYTTVGVVGEPARASGVVLVPDGPQCPGPYPVLGWGSATETLRSAEQAKGIISANGDDPLVTRLASQGYVVVSTDYLGLGGSNYPYHPYLHANSEASALIDALRASRTVLQHLNTPLSNKLMLSGFSQGGHTAMATQREIEAHLSNEFSLVASAPISGPYALSQTFLDTWTGRNEVGENNFAIILGTYAIVGMQRTYRNIYSDPSQVFQDPWANQVEALFPGKKDTTDLFLGDDLPAIDQIKEYFQPGFYSDFPKNRKNPFFVDLVRNDLLNWAPRTPTLLCGSDNDTVVPFLKNTNLAIASFKKRGSRQVSVVDIGTGNRKDNSALTHLSSEELCIVKVRNEFLEKKR”, the protein production was “failed”.
With “MVIRGTNNDDNLIGTTGNDIIEGLGGNDRFEGGRGNDTLTGGTGNDVFNLEQQQDNDVVTDFVRGQDKIDLRNLNINDWATLQLLISNDGQDNALITTFFNGSQSQIKLLNINPNLLQASDFIFNTVNLNQTIDGTNFADQLFGGLGNDTLRGFNGNDVLFGEQGDDRFEGGRGNDTFYGGAGNDVFNLEQQQDNDVVTDFVRGQDKIDLRNLNINDWATLQLLISNDGQDNALITTFFNGSQSQIKLLNINPNLLQASDFIFNTVNLNQTIDGTNFADQLFGGLGNDTLRGFFGNDVLFGEQGDDRFEGGRGNDTFYGGAGNDVFNLEQLQDNDVVTDFVRGQDKIDLRNLNINDWATLQLLISNDGQNNALITTFFNGDQSQIKLLNINPNLLQASDFIFNTVNLNQTIDGTNSPDQLFGGLGNDTLRGFFGNDVLFGEQGDDRFEGGRGNDTFYGGAGNDVFNLEQLQDNDVVTDFVQGQDKIDIRNLNINDWATLQLLISNDGQDNALITTFFNGDQSQIKLLNINPNLLQASDFIFNTVNLNQTIDGTNSPDQLFGGLGNDTLRGFFGNDVLFGEQGDDRFEGGRGNDTFYGGAGNDVFNLEQLQDNDVVIDFVQGQDKIDIRSLNISDWATLQLLISNDGQNNALITTFFNGDQSQIKLNNINPNLLQASDFIFNTNTVNLNQTIDGTNSPDQLFGGLGNDTLRGFFGNDVLFGEQGDDRFEGGAGNDTFYGGTGNDIAVYLGTRSQYQVTSNGGVFTVTDTVANRDGVDTLREVEQIQFSDQTITIGNTSPTITLAVSPASVTEDGTPNLIYTFTRTGSTTNALTVNYSVAGTATLNTDYAQTGAASFTATTGTITFAVGASTAILTINPTADTTVESNETVALTLASGTGYTVGTTTAVTGTITNDDFPSITLAVSPASVTEDGTPNLIYTFTRTGSTTNALTINFGVAGTATLNTDYAQSGAASFTATTGTITFAAGASTAILTINPTADTTVESNETVALTLASGTGYTVGTTTAVTGTITNDDTLPTGITINLSGSQTIVEGNSSPQNVTYTVTLSQASSQIITVQYATANGTATAGSDYTSTTGTLTFNPGETSKVINIPILNDSVNEANETFTLRLTSPTNATLGTTNTVTTTITDTLSASVTTTLPTNVENLTLTGTAAINGTGNAGNNILTGNSGNNILSGGAGNDTYAFVANAALGTDTITETATGGIDTIDFNGSTATVRVNLGVTTSQTVNNNLKLILSANNVIENATGGTGNDRLTGNALNNILAGGNGNDQLQGLAGNDTLWGGLGDDILTGGIGQDKYLFQSSGVFSSSLGVDYISQFDVGQDQIVLSKATFNAVTNSAGQALTDFAVVSDDEFVNASSARIVYSQGSGSLFYNRDGNVLGTSTVFEFARLGNPDITLSSSDFSLIA” the protein production was “failed”.
